Assay results: PMC2918618, “Characterization of the TnsD-attTn7 complex that promotes site-specific insertion of Tn7” (Mobile DNA, 2010)

Columns and labels:
Assay in all cases: EMSA; Gel-shift buffer not given (as described in ref. 6); TnsD stored in 500 mM KCl, 50 mM Tris-HCl pH 8.0, 1 mM EDTA, 2 mM DTT, 25% glycerol
Conditions in all cases: protein: recombinant
[1] = biological target: T1, TnsD 1-490 (Escherichia coli (transposon Tn7), UniProt P13991 1-490)
T1 sequence: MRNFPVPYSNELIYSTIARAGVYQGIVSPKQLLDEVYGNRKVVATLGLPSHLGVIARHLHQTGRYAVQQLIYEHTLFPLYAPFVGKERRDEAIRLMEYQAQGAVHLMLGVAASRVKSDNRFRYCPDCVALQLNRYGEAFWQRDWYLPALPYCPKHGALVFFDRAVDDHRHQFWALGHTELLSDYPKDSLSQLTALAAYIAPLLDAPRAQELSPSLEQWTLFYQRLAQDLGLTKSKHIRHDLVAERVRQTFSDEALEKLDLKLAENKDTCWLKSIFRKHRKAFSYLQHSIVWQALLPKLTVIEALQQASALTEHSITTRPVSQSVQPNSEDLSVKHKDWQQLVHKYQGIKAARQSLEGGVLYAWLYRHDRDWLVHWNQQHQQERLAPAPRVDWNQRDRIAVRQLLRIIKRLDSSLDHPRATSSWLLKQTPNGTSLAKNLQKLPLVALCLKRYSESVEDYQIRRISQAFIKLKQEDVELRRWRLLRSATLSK

[2] = biological target: T2, TnsD 1-480 (Escherichia coli (transposon Tn7), UniProt P13991 1-480)
T2 sequence: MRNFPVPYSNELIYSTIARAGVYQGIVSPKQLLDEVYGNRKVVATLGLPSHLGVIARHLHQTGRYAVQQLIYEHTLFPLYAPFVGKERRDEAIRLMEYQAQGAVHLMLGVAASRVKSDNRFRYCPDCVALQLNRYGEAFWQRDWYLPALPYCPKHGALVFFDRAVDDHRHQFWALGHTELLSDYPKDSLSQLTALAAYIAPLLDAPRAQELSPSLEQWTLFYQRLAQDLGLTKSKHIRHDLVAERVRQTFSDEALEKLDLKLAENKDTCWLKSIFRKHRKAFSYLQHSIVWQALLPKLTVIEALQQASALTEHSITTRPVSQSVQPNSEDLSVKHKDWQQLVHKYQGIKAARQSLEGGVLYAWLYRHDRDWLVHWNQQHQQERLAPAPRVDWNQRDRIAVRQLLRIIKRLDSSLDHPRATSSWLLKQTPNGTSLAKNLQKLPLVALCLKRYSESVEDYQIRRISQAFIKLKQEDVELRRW

[3] = biological target: T3, TnsD 1-399 (Escherichia coli (transposon Tn7), UniProt P13991 1-399)
T3 sequence: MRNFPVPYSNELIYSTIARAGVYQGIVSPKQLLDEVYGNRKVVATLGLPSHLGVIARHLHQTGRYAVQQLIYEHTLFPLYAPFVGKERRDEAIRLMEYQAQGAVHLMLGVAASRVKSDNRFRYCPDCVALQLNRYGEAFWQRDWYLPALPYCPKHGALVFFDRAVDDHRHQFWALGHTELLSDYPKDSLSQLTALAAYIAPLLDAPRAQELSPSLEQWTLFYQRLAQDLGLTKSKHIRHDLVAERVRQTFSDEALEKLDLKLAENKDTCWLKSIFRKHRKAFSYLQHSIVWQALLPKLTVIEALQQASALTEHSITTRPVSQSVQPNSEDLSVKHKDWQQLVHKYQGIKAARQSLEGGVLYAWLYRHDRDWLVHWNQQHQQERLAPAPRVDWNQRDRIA

[4] = biological target: T4, TnsD 1-498 (Escherichia coli (transposon Tn7), UniProt P13991 1-498)
T4 sequence: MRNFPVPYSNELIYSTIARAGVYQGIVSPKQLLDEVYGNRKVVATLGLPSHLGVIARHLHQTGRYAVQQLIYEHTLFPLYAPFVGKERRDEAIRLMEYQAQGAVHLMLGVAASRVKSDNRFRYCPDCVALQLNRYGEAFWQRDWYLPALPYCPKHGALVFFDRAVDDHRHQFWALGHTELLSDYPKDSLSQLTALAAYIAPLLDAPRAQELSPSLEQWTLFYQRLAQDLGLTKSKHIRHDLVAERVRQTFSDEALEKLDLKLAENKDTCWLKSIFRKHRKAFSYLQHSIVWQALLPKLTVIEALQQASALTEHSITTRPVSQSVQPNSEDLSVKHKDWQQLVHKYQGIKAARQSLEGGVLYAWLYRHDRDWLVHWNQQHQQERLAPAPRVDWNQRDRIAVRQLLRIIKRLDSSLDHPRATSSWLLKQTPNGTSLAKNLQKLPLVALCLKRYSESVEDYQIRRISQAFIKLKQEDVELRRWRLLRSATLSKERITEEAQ

Measured: binding result

B1: attTn7 wt (+23 to +58) (dsDNA)
DNA 1: CCGCGTAACCTGGCAAAATCGGTTACGGTTGAGTAA
DNA 2: TTACTCAACCGTAACCGATTTTGCCAGGTTACGCGG
no binding: all assays above
